In paper doi:10.1101/2024.05.08.592267, “Origins and diversity of pan-isotype human bone marrow plasma cells” (bioRxiv, 2024):

Target: T1, biotinylated natural Ara h 2 (Arachis hypogaea (peanut), natural …, UniProt Q6PSU2, biotin (position not given))
T1 construct: Ara h 2, peanut allergen, 'natural' (not recombinant) protein; Natural Ara h 2 from peanut may be a mixture of isoforms; also called Biotin Natural Ara h 2; source: bought: InBio (biotinylated natural Ara h 2)
Test: BLI; in-tandem epitope binning; biotinylated natural Ara h 2 loaded on streptavidin sensors; primary mAbs 10 ug/mL, secondary mAbs 5 ug/mL in kinetics buffer (Dulbecco's PBS, 1% BSA, 0.02% Tween-20); Octet R2
Conditions: both partners purified

T1 sequence (Q6PSU2 whole entry, looked up, canonical isoform): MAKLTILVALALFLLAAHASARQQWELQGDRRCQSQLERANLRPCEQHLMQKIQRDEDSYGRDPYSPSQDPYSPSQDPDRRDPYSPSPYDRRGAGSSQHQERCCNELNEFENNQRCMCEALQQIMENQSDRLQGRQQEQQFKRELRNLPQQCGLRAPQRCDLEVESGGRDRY

binding result: binds
B1: 13T5 (monoclonal Ara h 2 specific antibody, Epitope 2) (antibody, V domains shown)
VH: QVQLQESGPGLVKPSETLSLTCTVSGGSMSSYYWGWIRQPAGRGLEWIGRIFTTGSTIYNASLNSRVSMSVDTSKNQFSLKLTSVTAADTALYFCVRDRRGRSHDSNWYWYFDLWGRGTLVTVSS
VL: DIVMTQSPSSLSASVGDRVIITCRTSQTLSRNLNWYQQKPGEAPKLLIYGASTLQSGVPSRFTGSGSGTDFTLIISSLQPEDFATYYCQQSDNTPRTFGQGTKVEIK
